From patent US10245299B2, “Autoassembling peptides for the treatment of pulmonary bulla” (3-D MATRIX, LTD., priority 2014, dated 2019)

Assays:
Type in all cases: physicochemical
[1] = Appearance of 1.5% peptide solutions with various salts at room temperature; conditions: for Appearance: IEIK13 solution, room temperature
Procedure: The effect of salt ionic strength level on the properties of peptide solutions was evaluated to identify optimized salt ionic strength levels for the peptides as described herein. Increasing the salt ionic strength level of PuraMatrix® and other peptides may generally improve its function and mechanical strength for various clinical applications. To adjust the salt ionic strength of the peptide solutions by way of example, various salt buffer solutions including NaCl, KCl, MgCl2, CaCl2 and DPBS (10×) were added to 2 mL of 1.5% peptide solutions.

[2] = Rheological properties of pH adjusted peptide solutions and hydrogels; conditions: KLD12 1%, IEIK13 1%, PuraMatrix® 1% and 2.5%
Procedure: Based on the visual observation of the effect of pH level on the properties of the peptide solutions, the effect on the rheological properties of the peptide solutions after adjusting their pH level to 3.4 (PuraMatrix® and KLD12) or 3.7 (IEIK13) was evaluated. If the pH levels of peptide solutions are higher than 3.5 (PuraMatrix® and KLD12) or 3.7 (IEIK13), the peptide solution began phase separation becoming cloudy. The rheological properties of PuraMatrix®, KLD12 and IEIK13 solutions were higher at pH 3.4. The results are shown in FIG. 2 for KLD12 1%, FIG. 3 for IEIK13 1%, and FIGS. 4-5 for PuraMatrix® 1% and 2.5%, respectively. Stress sweep tests were performed at 10 rad/s. Frequency sweep tests were performed at 1 Pa.
Based on the results of the effect on the rheological properties of the peptide solutions after adjusting their pH level to 3.4 (PuraMatrix® and KLD12) or 3.7 (IEIK13), the effect on the rheological properties of the peptide solutions at various pH levels was evaluated. […] The rheological properties of peptides were evaluated at various concentrations using a rheometer (DHR-1, TA Instruments) with 20 mm plates. The results are shown in FIG. 6A for PuraMatrix® 2.5% solution and FIG. 6B for IEIK13 1.5% solution, respectively. Frequency sweep tests were performed from 1 rad/sec to 10 rad/sec at 1 Pa and the storage modulus at 1 rad/sec was selected for data.
Based on the results of the effect on the rheological properties of the peptide solutions after adjusting their pH level, the effect on the rheological properties of the peptide hydrogels at various pH after DMEM treatment was evaluated and compared to the effect on the rheological properties of the peptide solutions at various pH before DMEM treatment. […] The results are shown in FIGS. 7A-7B for PuraMatrix® and FIGS. 8A-8B for IEIK (SEQ ID NO: 5), respectively. Frequency sweep tests were performed from 1 rad/sec to 10 rad/sec at 1 Pa and the storage modulus at 1 rad/sec was selected for data.

[3] = Gelation of peptide solutions after saline buffer treatment, time sweep; conditions: saline buffer (0.15 M of NaCl); IEIK13 1.5%, KLD12 1.5%, PuraMatrix® 2.5% solution
Procedure: The effect of salt ionic strength level surrounding peptide solution on the properties of peptide solutions was evaluated to identify the possibility of peptide gelation when the peptide solution is placed into the environment where salt ionic strength level is high. […] Without pH effect, the effect of saline treatment on gelation of peptide solutions were evaluated. […] This is because IEIK13 is much more sensitive to salt ionic strength levels. Fast gelation of IEIK13 at the salt ionic strength level similar to body fluid isotonic salt level may generally improve its function and gelation speed for various clinical applications. The results are shown in FIG. 19 for IEIK13, KLD12 and PuraMatrix® solutions. Time sweep tests were performed at 1 rad/sec and at 1 Pa with 20 mm plates and 500 μm gap distance. […]

Ile-Glu-Ile-Lys-Ile-Glu-Ile-Lys-Ile-Glu-Ile-Lys-Ile [IEIK13]
Appearance ([1]; conc. 1.16%, KCl 0.045 M, ionic strength 0.045 M): Cloudy, phase-separated
Appearance ([1]; conc. 1.2%, KCl 0.04 M, ionic strength 0.04 M): Slightly cloudy, brittle
Appearance ([1]; conc. 1.2%, NaCl 0.04 M, ionic strength 0.04 M): Cloudy, phase-separated
Appearance ([1]; conc. 1.24%, KCl 0.035 M, ionic strength 0.035 M): Slightly cloudy, brittle gel
Appearance ([1]; conc. 1.24%, NaCl 0.035 M, ionic strength 0.035 M): Slightly cloudy, brittle gel
Appearance ([1]; conc. 1.27%, KCl 0.03 M, ionic strength 0.03 M): Clear, thick, stiffer gel
Appearance ([1]; conc. 1.27%, NaCl 0.03 M, ionic strength 0.03 M): Slightly cloudy, thick, stiffer gel
Appearance ([1]; conc. 1.31%, KCl 0.025 M, ionic strength 0.025 M): Clear, thick, stiffer gel
Appearance ([1]; conc. 1.31%, NaCl 0.025 M, ionic strength 0.025 M): Clear, thick, stiffer gel
Appearance ([1]; conc. 1.35%, KCl 0.02 M, ionic strength 0.02 M): Clear, thick, stiffer gel
Appearance ([1]; conc. 1.35%, NaCl 0.02 M, ionic strength 0.02 M): Clear, thick, stiffer gel
Appearance ([1]; conc. 1.36%, CaCl2 0.0183 M, ionic strength 0.055 M): Cloudy, phase-separated
Appearance ([1]; conc. 1.36%, MgCl2 0.0183 M, ionic strength 0.055 M): Cloudy, phase-separated
Appearance ([1]; conc. 1.37%, CaCl2 0.0167 M, ionic strength 0.05 M): Slightly cloudy, brittle gel
Appearance ([1]; conc. 1.37%, MgCl2 0.0167 M, ionic strength 0.05 M): Slightly cloudy, brittle gel
Appearance ([1]; conc. 1.39%, CaCl2 0.015 M, ionic strength 0.045 M): Slightly cloudy, thick, stiffer gel
Appearance ([1]; conc. 1.39%, KCl 0.015 M, ionic strength 0.015 M): Clear, thick, stiffer gel
Appearance ([1]; conc. 1.39%, MgCl2 0.015 M, ionic strength 0.045 M): Slightly cloudy, stiffer gel
Appearance ([1]; conc. 1.39%, NaCl 0.015 M, ionic strength 0.015 M): Clear, thick, stiffer gel
Appearance ([1]; conc. 1.40%, CaCl2 0.0133 M, ionic strength 0.04 M): Slightly cloudy, thick, stiffer gel
Appearance ([1]; conc. 1.40%, MgCl2 0.0133 M, ionic strength 0.04 M): Slightly cloudy, thick, stiffer gel
Appearance ([1]; conc. 1.41%, CaCl2 0.0117 M, ionic strength 0.035 M): Clear, thick, stiffer gel
Appearance ([1]; conc. 1.41%, MgCl2 0.0117 M, ionic strength 0.035 M): Clear, thick, stiffer gel
Appearance ([1]; conc. 1.43%, CaCl2 0.01 M, ionic strength 0.03 M): Clear, thick, stiffer gel
Appearance ([1]; conc. 1.43%, KCl 0.01 M, ionic strength 0.01 M): Clear, thick, stiffer gel
Appearance ([1]; conc. 1.43%, MgCl2 0.01 M, ionic strength 0.03 M): Clear, thick, stiffer gel
Appearance ([1]; conc. 1.43%, NaCl 0.01 M, ionic strength 0.01 M): Clear, thick, stiffer gel
Appearance ([1]; conc. 1.44%, CaCl2 0.0083 M, ionic strength 0.025 M): Clear, thick, stiffer gel
Appearance ([1]; conc. 1.44%, MgCl2 0.0083 M, ionic strength 0.025 M): Clear, thick, stiffer gel
Appearance ([1]; conc. 1.45%, CaCl2 0.0067 M, ionic strength 0.02 M): Clear, thick, stiffer gel
Appearance ([1]; conc. 1.45%, MgCl2 0.0067 M, ionic strength 0.02 M): Clear, thick, stiffer gel
Appearance ([1]; conc. 1.46%, CaCl2 0.005 M, ionic strength 0.015 M): Clear, thick, stiffer gel
Appearance ([1]; conc. 1.46%, KCl 0.005 M, ionic strength 0.005 M): Clear, thick, stiffer gel
Appearance ([1]; conc. 1.46%, MgCl2 0.005 M, ionic strength 0.015 M): Clear, thick, stiffer gel
Appearance ([1]; conc. 1.46%, NaCl 0.005 M, ionic strength 0.005 M): Clear, thick, stiffer gel
Appearance ([1]; conc. 1.5%, CaCl2 0 M, ionic strength 0 M): Clear, thick gel
Appearance ([1]; conc. 1.5%, KCl 0 M, ionic strength 0 M): Clear, thick gel
Appearance ([1]; conc. 1.5%, MgCl2 0 M, ionic strength 0 M): Clear, thick gel
Appearance ([1]; conc. 1.5%, NaCl 0 M, ionic strength 0 M): Clear, thick gel
salt ionic strength increase that did not change the clear color of the solution (apparent stiffness increased) ([1]; depending on different salts, 1.5% peptide solutions): 0.025˜0.035 M
rheological properties of solutions at pH 3.4 [2]: higher
gelation after saline buffer treatment [3]: fast gelation
